The values that follow come from FireProtDB (doi:10.1021/bi100877y).

The conditions of the series: Escherichia coli (strain K12); pH 7; Thermal; DSC; phosphate 50 mM; whole UniProt chain shown.

B1: Outer membrane porin C wild type, P06996 (protein)
chain: MKVKVLSLLVPALLVAGAANAAEVYNKDGNKLDLYGKVDGLHYFSDNKDVDGDQTYMRLGFKGETQVTDQLTGYGQWEYQIQGNSAENENNSWTRVAFAGLKFQDVGSFDYGRNYGVVYDVTSWTDVLPEFGGDTYGSDNFMQQRGNGFATYRNTDFFGLVDGLNFAVQYQGKNGNPSGEGFTSGVTNNGRDALRQNGDGVGGSITYDYEGFGIGGAISSSKRTDAQNTAAYIGNGDRAETYTGGLKYDANNIYLAAQYTQTYNATRVGSLGWANKAQNFEAVAQYQFDFGLRPSLAYLQSKGKNLGRGYDDEDILKYVDVGATYYFNKNMSTYVDYKINLLDDNQFTRDAGINTDNIVALGLVYQF
The term Tm denotes the temperature at the midpoint of the melting transition. On to B1, for which the Tm was 87 °C and the “unfolding enthalpy (calorimetric)” value was determined as 328 kcal/mol.
